Article PMC8465894

Key:
[1] = rescue of surface CD55 in PIGT-KO cells, flow cytometry; details: glycan lost; control: wild-type PIGT
[2] = rescue of surface CD55 in PIGS-KO cells, flow cytometry; details: glycan lost; control: wild-type PIGS
[3] = rescue of surface CD55 in GPAA1-KO cells, flow cytometry; details: glycan lost; control: wild-type GPAA1

Row | Protein | enzymatic_activity [1] | enzymatic_activity [2] | further results
1 | PIGT: N164Q (protein) parent chain: MAAAMPLALLVLLLLGPGGWCLAEPPRDSLREELVITPLPSGDVAATFQFRTRWDSELQREGVSHYRLFPKALGQLISKYSLRELHLSFTQGFWRTRYWGPPFLQAPSGAELWVWFQDTVTDVDKSWKELSNVLSGIFCASLNFIDSTNTVTPTASFKPLGLANDTDHYFLRYAVLPREVVCTENLTPWKKLLPCSSKAGLSVLLKADRLFHTSYHSQAVHIRPVCRNARCTSISWELRQTLSVVFDAFITGQGKKDWSLFRMFSRTLTEPCPLASESRVYVDITTYNQDNETLEVHPPPTTTYQDVILGTRKTYAIYDLLDTAMINNSRNLNIQLKWKRPPENEAPPVPFLHAQRYVSGYGLQKGELSTLLYNTHPYRAFPVLLLDTVPWYLRLYVHTLTITSKGKENKPSYIHYQPAQDRLQPHLLEMLIQLPANSVTKVSIQFERALLKWTEYTPDPNHGFYVSPSVLSALVPSMVAAKPVDWEESPLFNSLFPVSDGSNYFVRLYTEPLLVNLPTPDFSMPYNVICLTCTVVAVCYGSFYNLLTRTFHIEEPRTGGLAKRLANLIRRARGVPPL | no change |  | 
2 | PIGT: N291Q (protein) parent chain: MAAAMPLALLVLLLLGPGGWCLAEPPRDSLREELVITPLPSGDVAATFQFRTRWDSELQREGVSHYRLFPKALGQLISKYSLRELHLSFTQGFWRTRYWGPPFLQAPSGAELWVWFQDTVTDVDKSWKELSNVLSGIFCASLNFIDSTNTVTPTASFKPLGLANDTDHYFLRYAVLPREVVCTENLTPWKKLLPCSSKAGLSVLLKADRLFHTSYHSQAVHIRPVCRNARCTSISWELRQTLSVVFDAFITGQGKKDWSLFRMFSRTLTEPCPLASESRVYVDITTYNQDNETLEVHPPPTTTYQDVILGTRKTYAIYDLLDTAMINNSRNLNIQLKWKRPPENEAPPVPFLHAQRYVSGYGLQKGELSTLLYNTHPYRAFPVLLLDTVPWYLRLYVHTLTITSKGKENKPSYIHYQPAQDRLQPHLLEMLIQLPANSVTKVSIQFERALLKWTEYTPDPNHGFYVSPSVLSALVPSMVAAKPVDWEESPLFNSLFPVSDGSNYFVRLYTEPLLVNLPTPDFSMPYNVICLTCTVVAVCYGSFYNLLTRTFHIEEPRTGGLAKRLANLIRRARGVPPL | no change |  | 
3 | PIGT: N327Q (protein) parent chain: MAAAMPLALLVLLLLGPGGWCLAEPPRDSLREELVITPLPSGDVAATFQFRTRWDSELQREGVSHYRLFPKALGQLISKYSLRELHLSFTQGFWRTRYWGPPFLQAPSGAELWVWFQDTVTDVDKSWKELSNVLSGIFCASLNFIDSTNTVTPTASFKPLGLANDTDHYFLRYAVLPREVVCTENLTPWKKLLPCSSKAGLSVLLKADRLFHTSYHSQAVHIRPVCRNARCTSISWELRQTLSVVFDAFITGQGKKDWSLFRMFSRTLTEPCPLASESRVYVDITTYNQDNETLEVHPPPTTTYQDVILGTRKTYAIYDLLDTAMINNSRNLNIQLKWKRPPENEAPPVPFLHAQRYVSGYGLQKGELSTLLYNTHPYRAFPVLLLDTVPWYLRLYVHTLTITSKGKENKPSYIHYQPAQDRLQPHLLEMLIQLPANSVTKVSIQFERALLKWTEYTPDPNHGFYVSPSVLSALVPSMVAAKPVDWEESPLFNSLFPVSDGSNYFVRLYTEPLLVNLPTPDFSMPYNVICLTCTVVAVCYGSFYNLLTRTFHIEEPRTGGLAKRLANLIRRARGVPPL | no change |  | 
4 | PIGS: N267Q (protein) parent chain: MAAAGAAATHLEVARGKRAALFFAAVAIVLGLPLWWKTTETYRASLPYSQISGLNALQLRLMVPVTVVFTRESVPLDDQEKLPFTVVHEREIPLKYKMKIKCRFQKAYRRALDHEEEALSSGSVQEAEAMLDEPQEQAEGSLTVYVISEHSSLLPQDMMSYIGPKRTAVVRGIMHREAFNIIGRRIVQVAQAMSLTEDVLAAALADHLPEDKWSAEKRRPLKSSLGYEITFSLLNPDPKSHDVYWDIEGAVRRYVQPFLNALGAAGNFSVDSQILYYAMLGVNPRFDSASSSYYLDMHSLPHVINPVESRLGSSAASLYPVLNFLLYVPELAHSPLYIQDKDGAPVATNAFHSPRWGGIMVYNVDSKTYNASVLPVRVEVDMVRVMEVFLAQLRLLFGIAQPQLPPKCLLSGPTSEGLMTWELDRLLWARSVENLATATTTLTSLAQLLGKISNIVIKDDVASEVYKAVAAVQKSAEELASGHLASAFVASQEAVTSSELAFFDPSLLHLLYFPDDQKFAIYIPLFLPMAVPILLSLVKIFLETRKSWRKPEKTD |  | no change | 
5 | PIGS: N370Q (protein) parent chain: MAAAGAAATHLEVARGKRAALFFAAVAIVLGLPLWWKTTETYRASLPYSQISGLNALQLRLMVPVTVVFTRESVPLDDQEKLPFTVVHEREIPLKYKMKIKCRFQKAYRRALDHEEEALSSGSVQEAEAMLDEPQEQAEGSLTVYVISEHSSLLPQDMMSYIGPKRTAVVRGIMHREAFNIIGRRIVQVAQAMSLTEDVLAAALADHLPEDKWSAEKRRPLKSSLGYEITFSLLNPDPKSHDVYWDIEGAVRRYVQPFLNALGAAGNFSVDSQILYYAMLGVNPRFDSASSSYYLDMHSLPHVINPVESRLGSSAASLYPVLNFLLYVPELAHSPLYIQDKDGAPVATNAFHSPRWGGIMVYNVDSKTYNASVLPVRVEVDMVRVMEVFLAQLRLLFGIAQPQLPPKCLLSGPTSEGLMTWELDRLLWARSVENLATATTTLTSLAQLLGKISNIVIKDDVASEVYKAVAAVQKSAEELASGHLASAFVASQEAVTSSELAFFDPSLLHLLYFPDDQKFAIYIPLFLPMAVPILLSLVKIFLETRKSWRKPEKTD |  | no change | 
6 | GPAA1: N203Q (protein) parent chain: MGLLSDPVRRRALARLVLRLNAPLCVLSYVAGIAWFLALVFPPLTQRTYMSENAMGSTMVEEQFAGGDRARAFARDFAAHRKKSGALPVAWLERTMRSVGLEVYTQSFSRKLPFPDETHERYMVSGTNVYGILRAPRAASTESLVLTVPCGSDSTNSQAVGLLLALAAHFRGQIYWAKDIVFLVTEHDLLGTEAWLEAYHDVNVTGMQSSPLQGRAGAIQAAVALELSSDVVTSLDVAVEGLNGQLPNLDLLNLFQTFCQKGGLLCTLQGKLQPEDWTSLDGPLQGLQTLLLMVLRQASGRPHGSHGLFLRYRVEALTLRGINSFRQYKYDLVAVGKALEGMFRKLNHLLERLHQSFFLYLLPGLSRFVSIGLYMPAVGFLLLVLGLKALELWMQLHEAGMGLEEPGGAPGPSVPLPPSQGVGLASLVAPLLISQAMGLALYVLPVLGQHVATQHFPVAEAEAVVLTLLAIYAAGLALPHNTHRVVSTQAPDRGWMALKLVALIYLALQLGCIALTNFSLGFLLATTMVPTAALAKPHGPRTLYAALLVLTSPAATLLGSLFLWRELQEAPLSLAEGWQLFLAALAQGVLEHHTYGALLFPLLSLGLYPCWLLFWNVLFWK |  |  | enzymatic_activity [3]: no change
